Data taken from patent US7176279 (PALATIN TECHNOLOGIES, dated 2007).

Legend:
[1] = biological target: T1, MC1-R (B16-F1 mouse melanoma cells) (mouse, UniProt Q01727 1-315); assay: titrated competitive binding assay on receptor membranes
T1 construct: whole, on cells; Assayed as membranes prepared from B16-F1 mouse melanoma cells; also called MC1 receptor; melanocortin-1 receptor

hMC3-R [2] = biological target: T2, hMC3-R (human, UniProt P41968 1-323); assay: as above
T2 construct: whole, on cells; Assayed as membranes prepared from transfected HEK 293 cells; also called MC3 receptor; melanocortin-3 receptor
T2 sequence (P41968 whole entry): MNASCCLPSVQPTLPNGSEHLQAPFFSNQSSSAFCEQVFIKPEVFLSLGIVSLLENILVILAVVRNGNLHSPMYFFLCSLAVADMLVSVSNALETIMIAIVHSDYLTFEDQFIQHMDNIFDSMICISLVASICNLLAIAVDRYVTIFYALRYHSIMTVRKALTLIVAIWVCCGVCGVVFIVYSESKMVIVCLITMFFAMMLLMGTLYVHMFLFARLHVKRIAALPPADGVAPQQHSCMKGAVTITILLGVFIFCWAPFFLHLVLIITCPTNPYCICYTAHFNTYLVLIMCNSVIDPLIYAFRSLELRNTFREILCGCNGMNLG

hMC4-R [3] = biological target: T3, hMC4-R (human, UniProt P32245 1-332); assay: as above
T3 construct: whole, on cells; cAMP assay on whole transfected HEK-293 cells; also called MC4 receptor; melanocortin-4 receptor
T3 sequence (P32245 whole entry): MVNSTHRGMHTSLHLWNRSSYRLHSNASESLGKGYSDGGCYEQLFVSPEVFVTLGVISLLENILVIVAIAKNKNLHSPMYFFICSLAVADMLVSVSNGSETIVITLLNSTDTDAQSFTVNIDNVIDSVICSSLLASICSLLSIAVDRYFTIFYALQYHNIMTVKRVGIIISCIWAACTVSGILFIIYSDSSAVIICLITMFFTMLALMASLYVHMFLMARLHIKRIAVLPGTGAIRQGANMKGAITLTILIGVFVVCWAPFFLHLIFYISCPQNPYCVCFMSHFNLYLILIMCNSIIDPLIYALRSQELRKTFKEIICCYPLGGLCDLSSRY

hMC5-R [4] = biological target: T4, hMC5-R (human, UniProt P33032 1-325); assay: as above
T4 construct: whole, on cells; Assayed as membranes prepared from transfected HEK 293 cells; also called MC5 receptor; melanocortin-5 receptor
T4 sequence (P33032 whole entry): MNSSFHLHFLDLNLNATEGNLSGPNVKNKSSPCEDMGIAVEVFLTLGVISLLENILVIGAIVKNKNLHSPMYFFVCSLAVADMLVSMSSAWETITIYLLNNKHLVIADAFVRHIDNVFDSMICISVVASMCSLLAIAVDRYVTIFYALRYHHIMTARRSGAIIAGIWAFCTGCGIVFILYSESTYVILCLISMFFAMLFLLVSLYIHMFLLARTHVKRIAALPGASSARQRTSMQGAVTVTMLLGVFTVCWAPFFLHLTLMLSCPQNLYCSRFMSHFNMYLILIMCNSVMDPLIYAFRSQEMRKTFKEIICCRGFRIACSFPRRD

[5] = biological target: T1, MC1-R (B16-F1 mouse melanoma cells); assay: competition with 125I-NDP-MSH, B16-F1 membranes, 1 µM peptide
hMC3-R [6] = biological target: T2, hMC3-R; assay: competition with 125I-NDP-MSH, HEK 293 hMC3-R membranes, 1 µM peptide
hMC4-R [7] = biological target: T3, hMC4-R; assay: competition with 125I-NDP-MSH, HEK 293 hMC4-R membranes, 1 µM peptide
hMC5-R [8] = biological target: T4, hMC5-R; assay: competition with 125I-NDP-MSH, HEK 293 hMC5-R membranes, 1 µM peptide

T1 sequence (Q01727 whole entry): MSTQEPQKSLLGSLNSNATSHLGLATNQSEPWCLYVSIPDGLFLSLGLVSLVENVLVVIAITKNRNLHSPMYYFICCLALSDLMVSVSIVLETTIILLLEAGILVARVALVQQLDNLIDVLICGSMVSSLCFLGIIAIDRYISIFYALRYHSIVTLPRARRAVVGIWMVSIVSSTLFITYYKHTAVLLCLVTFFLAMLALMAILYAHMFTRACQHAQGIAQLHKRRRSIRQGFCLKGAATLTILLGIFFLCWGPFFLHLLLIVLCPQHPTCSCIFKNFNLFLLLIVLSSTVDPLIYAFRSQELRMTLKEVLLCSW

Ki [1]: 0.0099 µM
Ki (hMC3-R [2]): 10.8 µM
Ki (hMC4-R [3]): 742 µM
Ki (hMC5-R [4]): 2.53 µM
Percent Inhibition At 1 µM concentration [5]: 86%
Percent Inhibition At 1 µM concentration (hMC3-R [6]): 8%
Percent Inhibition At 1 µM concentration (hMC4-R [7]): 46%
Percent Inhibition At 1 µM concentration (hMC5-R [8]): 17%
B1: Ac-Nle-cyclo(-Asp-His-D-Phe-Lys-Trp-Lys)-OH (peptide)
peptide: XDHFKWK
modifications: N-terminal acetyl; Nle at 1 (X); D-Phe at 4; cyclo (lactam) between side chains of Asp 2 and Lys 7; C-terminal free acid (-OH)
notes: Synthetic cyclic heptapeptide; X = norleucine; also called Ac-Nle-cyclo( -Asp-His-D-Phe-Lys-Trp-Lsy)-OH
